Two substances from patent publication US20190360025A1 can be followed below.

For assay [1], the target named is vascular endothelial growth factor (VEGF), R&D Systems 293-VE-010 (human) (UniProt P15692). Description: c-PLA, buffer; VEGF 1.00E-13 M.
The target is the same in assay [2]. Description: c-PLA, human plasma; VEGF 1.00E-08 M.
The target is the same in assay [3]. Description: t-PLA, human plasma; VEGF 1.00E-10 M.
For assay [4] the target is unchanged. Description: c-PLA, chicken plasma; VEGF 1.00E-12 M.
Assay [5] shares this target. Description: c-PLA with preamplification; VEGF 1.00E-13 M.
The target of assay [6] is tumor necrosis factor alpha (TNF-α), R&D Systems 210-TA-005 (UniProt P01375). Description: c-PLA, buffer; TNF-α 1.00E-08 M.
UniProt P01375, sequence (P01375 77-233 limits assumed): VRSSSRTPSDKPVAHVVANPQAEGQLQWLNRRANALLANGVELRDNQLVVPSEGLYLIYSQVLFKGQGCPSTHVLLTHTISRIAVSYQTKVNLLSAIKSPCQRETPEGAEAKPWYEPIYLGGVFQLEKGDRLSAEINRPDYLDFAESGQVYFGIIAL
The target is the same in assay [7]. Put plainly: c-PLA, buffer; TNF-α 1.00E-11 M.
Assay [8] has the same target. Description: c-PLA 1X probes, buffer; TNF-α 1.00E-11 M.
Assay [9] shares this target. Description: t-PLA 1X probes, human plasma; TNF-α 1.00E-09 M.

UniProt P15692, sequence (P15692 other isoform, or with tags, fused parts or gaps limits assumed): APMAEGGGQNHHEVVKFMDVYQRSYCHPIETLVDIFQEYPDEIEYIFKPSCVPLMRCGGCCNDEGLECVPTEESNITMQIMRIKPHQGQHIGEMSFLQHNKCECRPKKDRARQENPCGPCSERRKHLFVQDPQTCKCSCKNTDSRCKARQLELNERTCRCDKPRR

Consider “affinity-purified polyclonal anti-VEGF antibody (R&D Systems AF-293-NA)”, for which the Counts stood at 272 in assay [1]; 24800 in assay [2]; 4.9e+07 in assay [3]; 198 in assay [4]; 95500 in [5]. The SBR amounted to 9.1 in assay [1]; 96 in assay [2]; 30 in [3]; 22 in [4]; 1.6 in assay [5].

“affinity-purified polyclonal anti-TNF-α antibody (R&D Systems AF-210-NA)”: the Counts in assay [6] is 11600; in assay [7], 22.1; in assay [8], 22.1; in assay [9], 4.96e+06. Also, the SBR in assay [6] was 1030; in assay [8], 1.4; in assay [9], 21.
